Here are results for 4 molecules from patent US20180057596A1 (AstraZeneca / MedImmune, published 2018).

First the molecules themselves.
T1: human IL-4Rα on TF-1 cells (human, UniProt P24394 26-825)
T1 sequence (looked up): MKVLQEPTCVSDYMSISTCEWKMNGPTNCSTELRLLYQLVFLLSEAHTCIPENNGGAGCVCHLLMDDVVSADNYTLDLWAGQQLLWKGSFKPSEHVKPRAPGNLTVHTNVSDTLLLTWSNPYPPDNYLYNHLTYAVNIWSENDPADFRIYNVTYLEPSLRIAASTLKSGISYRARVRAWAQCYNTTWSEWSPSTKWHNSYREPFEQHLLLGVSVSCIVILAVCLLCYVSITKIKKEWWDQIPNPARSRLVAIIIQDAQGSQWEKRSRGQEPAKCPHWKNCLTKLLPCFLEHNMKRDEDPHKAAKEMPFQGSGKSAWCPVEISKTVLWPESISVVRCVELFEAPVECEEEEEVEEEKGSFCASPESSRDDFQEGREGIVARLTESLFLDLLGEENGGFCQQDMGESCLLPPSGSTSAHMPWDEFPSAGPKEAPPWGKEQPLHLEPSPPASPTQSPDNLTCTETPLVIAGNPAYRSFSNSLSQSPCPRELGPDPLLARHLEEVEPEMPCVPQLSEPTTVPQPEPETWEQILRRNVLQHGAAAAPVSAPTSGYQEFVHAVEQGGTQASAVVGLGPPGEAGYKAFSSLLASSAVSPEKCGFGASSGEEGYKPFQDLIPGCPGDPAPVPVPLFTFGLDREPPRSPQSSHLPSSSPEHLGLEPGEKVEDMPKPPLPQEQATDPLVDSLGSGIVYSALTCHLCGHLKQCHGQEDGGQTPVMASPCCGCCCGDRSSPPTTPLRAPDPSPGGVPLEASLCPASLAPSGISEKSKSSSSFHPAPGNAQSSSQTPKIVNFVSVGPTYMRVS

T2: cynomolgus IL-4Rα HIS FLAG (cynomolgus)
T2 construct: also called Cyno IL4Rα HIS FLAG; not shown: HIS and FLAG tags and any vector-encoded linker of the cynomolgus HIS FLAG construct
T2 chain: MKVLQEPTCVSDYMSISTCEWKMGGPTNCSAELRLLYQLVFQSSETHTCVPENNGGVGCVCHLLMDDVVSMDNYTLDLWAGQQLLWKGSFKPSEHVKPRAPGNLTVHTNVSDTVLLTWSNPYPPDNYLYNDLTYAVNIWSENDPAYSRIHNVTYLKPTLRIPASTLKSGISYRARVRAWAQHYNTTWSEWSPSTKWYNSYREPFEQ

B1: human IL-4Rα HIS FLAG (in house HEK-EBNA derived) (receptor)
chain: MKVLQEPTCVSDYMSISTCEWKMNGPTNCSTELRLLYQLVFLLSEAHTCIPENNGGAGCVCHLLMDDVVSADNYTLDLWAGQQLLWKGSFKPSEHVKPRAPGNLTVHTNVSDTLLLTWSNPYPPDNYLYNHLTYAVNIWSENDPADFRIYNVTYLEPSLRIAASTLKSGISYRARVRAWAQCYNTTWSEWSPSTKWHNSYREPFNPAFLYKVVGAADYKDDDDKAAHHHHHHHHHH
modifications: biotinylated where used as the labelled partner in the DELFIA assay
notes: also called HuIL-4Rα; Human IL4-Rα/FLAG/HIS tag
B2: Antibody 1 IgG (antibody, V domains shown)
VH: QVQLVQSGAEVKKPGASVKVSCKASGYAFTSYYMHWARQAPGQGLEWMGIINPSGGSTSYAQKFQGRVTMTRDTSTSTVYMELSSLRSEDTAVYYCARGKWWLDYWGKGTLVTVSS
VL: QSVLTQPPSVSAAPGQKVTISCSGGSSNIGNSYVSWYQQLPGTAPKLLIYDNNKRPSGIPDRFSGSKSGTSATLAITGLQTGDEADYYCGTWDTSLSANYVFGTGTKLTVL
B3: Antibody 24 (PGL) IgG (antibody, V domains shown)
VH: B2 VH with A37V, S54R, W101Y, L103M, D104Y, Y105D
VL: B2 VL with A75G, Y88F, L96T, S97V, A98W, N99E, Y100W, V101P
B4: Antibody 37 IgG (antibody, V domains shown)
VH: B2 VH with S54R, T69A, S88P, W101Y, L103M, D104Y, Y105D
VL: B2 VL with S26G, N28S, I59V, L96P, S97V, A98W, N99E, Y100W, V101P

The target in assay [1] is T3, antibody tested in the epitope mapping of Example 5.
T3 construct: also called an antibody of the invention
Kind of assay: HTRF competition, test protein against biotinylated human IL-4Rα/Fc for cryptate labelled antibody. As to the method: (§1) Antibody was cryptate labelled with Eu³⁺ Cryptate labelling kit according to the manufacturer's instructions (CisBio International Cat No. 62EUSPEA) and IL-4R•/Fc (R&D systems Cat. No. 604-4R-050) was Biotin labelled with EZ Link NHS-Biotin according to the manufacturer's instructions (Perbio Cat No. 20217). […] 1% BSA, 0. 4M potassium fluoride in a total volume of 20 μl in a 384 well microtitre plate (Greiner). To the assay a dilution series (from 1000 nM to 0.017 nM) of test proteins was added and the assay incubated overnight at 4° C. FRET signal was detected using a PerkinElmer EnVision plate reader using a 320 nm excitation filter and 620 nm and 665 nm emission filters. Results were calculated from the 665/620 ratio as a percentage of specific binding (signal with no competitor antigen). Results were analysed with Prism (GraphPad Software) using the sigmoidal dose response model.
Antibody binding of chimeric molecules was tested in an HTRF (Homogeneous Time Resolved Fluorescence) competition assay. Molecules which bound antibody at the same paratope as human IL-4R• inhibited the binding interaction, leading to a reduction in signal. From inhibition curves IC₅₀ values for human IL-4R•, mouse IL-4R• and chimeric molecules were calculated (Table 5). […] Chimeras that gave similar IC₅₀ values to native human IL-4R• still contained the epitope.

Assay [2] deals with T3, antibody tested in the epitope mapping …. Described as above. As to the method: as §1
This is another data set of the same source.

The target is the same in assay [3]. The description is as above. On the procedure: as §1
This is another data set of the same source.

The target of assay [4] is T1, human IL-4Rα on TF-1 cells. Kind of assay: cell-based or functional assay.
Assay [5] addresses T1, human IL-4Rα on TF-1 cells. Kind of assay: cell-based or functional assay. The source holds these as a separate data set.
For assay [6], the target named is T1, human IL-4Rα on TF-1 cells. Kind of assay: cell-based or functional assay. The source holds these as a separate data set.
The target of assay [7] is B1. Kind of assay: SPR (BIAcore 2000), IgG captured on Protein G', receptor as analyte, 1:1 Langmuir. On the procedure: (§2) In brief, Protein G′ (Sigma Aldrich, P4689) was covalently coupled to the surface of a CM5 sensor chip using standard amine coupling reagents according to manufacturer's instructions (BIAcore). This Protein G′ surface was used to capture a constant amount of purified anti-IL4R• antibodies or isotype control via the Fc domain. Human or cynomolgus IL-4R• HIS FLAG prepared in HBS-EP buffer (BIAcore AB), at a range of concentrations, between 100 nM and 0.2 nM, were passed over the sensor chip surface. […] The resulting sensorgrams were evaluated using BIA evaluation 4.1 software and fitted to 1:1 Langmuir binding model, to provide the relative binding data. The experiments were performed over the course of at least three separate days to calculate an average monovalent affinity.

In assay [8] the target is T2, cynomolgus IL-4Rα HIS FLAG. Described as above. As to the method: as §2
Assay [9] has as its target B1. Kind of assay: SPR (BIAcore 2000), value in parentheses under the mean, taken as a single determination. On the procedure: as §2
Assay [10] addresses T2, cynomolgus IL-4Rα HIS FLAG. Described as above. On the procedure: as §2
For assay [11], the target named is B1. Kind of assay: SPR (BIAcore 2000), value in parentheses under the mean, taken as a single determination; single determination, one of three separate days; the mean is 0.255 nM. On the procedure:
as §2

Changes are numbered by the printed parent chain. “And” between values parts separate entries of the source, which are not always exact repeats. Identical values can stand only once. Like-named read-outs stand apart in the source and are kept apart here.

As for B1, the IC50 in [1], in assay [2] and in assay [3] was 0.673 nM throughout.
Regarding B2, in assay [4], the “IC50 geomean, IL-4 induced TF-1 cell proliferation” value amounted to 38 nM and the “IC50 geomean, IL-13 induced TF-1 cell proliferation” value is 18 nM.
Consider B3, for which, in [5], the “IC50 (pM), IL-4 induced TF-1 cell proliferation” value worked out at 15.3 pM and the “IC50 (pM), IL-13 induced TF-1 cell proliferation” value came to 55 pM.
Take B4: in assay [6], the “IC50 (pM), IL-4 induced TF-1 cell proliferation” value was found to be 10.4 pM. The “IC50 (pM), IL-13 induced TF-1 cell proliferation” value in [6] was determined as 22.1 pM. Besides, the dissociation constant (Kd) in assay [7] was 0.255 nM; in [8], 2.97 nM; in [9] it was 0.25 nM and 0.203 nM; in assay [10], 2.59 nM and 2.36 nM and 3.96 nM; in assay [11], 0.313 nM. Further, the koff in assay [7] is 0.000162 s⁻¹; in [8], 0.000688 s⁻¹. In addition, the figures for the kon in assay [7] and in assay [8] were 640000 M⁻¹ s⁻¹ and 243000 M⁻¹ s⁻¹, respectively.
